Each block holds one molecule with its values, some of them ahead of it. No end group written: not given here. *: point of attachment. Biotin = O=C1N[C@H]2[C@H](CS[C@H]2CCCCC(=O)*)N1
What was measured:
[1] = target: murine TpoR ectodomain, monomeric (TpoR_(1-479)) (mouse) (UniProt Q08351)
[2] = target: murine TpoR ectodomain, monomeric (TpoR_(1-479)) (mouse) (UniProt Q08351); experiment: SPR; high concentrations of the Tpo F162E mutant, up to 10 µM; which TpoR form and which partner was immobilised is not stated
[3] = target: T1, murine TpoR ectodomain, monomeric (TpoR_(1-479)) (mouse, UniProt Q08351 26-479, N-linked glycans at N117, N178, N349; tryptophan mannosylation (W465, W468)); experiment: SPR; TpoR over immobilised romiplostim peptide
T1 chain: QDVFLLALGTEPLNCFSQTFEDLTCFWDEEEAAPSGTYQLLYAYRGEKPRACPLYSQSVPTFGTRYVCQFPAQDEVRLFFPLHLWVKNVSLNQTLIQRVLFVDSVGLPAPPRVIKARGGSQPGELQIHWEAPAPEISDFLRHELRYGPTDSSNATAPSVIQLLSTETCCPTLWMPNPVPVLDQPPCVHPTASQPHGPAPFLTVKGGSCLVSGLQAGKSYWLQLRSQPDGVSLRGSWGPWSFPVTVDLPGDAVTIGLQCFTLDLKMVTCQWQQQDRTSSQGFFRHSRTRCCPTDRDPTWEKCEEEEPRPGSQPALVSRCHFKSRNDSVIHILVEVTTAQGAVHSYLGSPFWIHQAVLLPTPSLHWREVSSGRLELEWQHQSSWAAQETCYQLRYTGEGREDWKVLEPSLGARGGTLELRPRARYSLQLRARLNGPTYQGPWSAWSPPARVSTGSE

[4] = target: T1, murine TpoR ectodomain, monomeric …; experiment: SPR; TpoR over immobilised romiplostim peptide
[5] = target: T2, murine TpoR ectodomain, monomeric (TpoR_(1-479)) (mouse, UniProt Q08351 26-479, N-linked glycans at N117, N178, N349; tryptophan mannosylation (W465, W468)); experiment: SPR; TpoR (monomeric, dimeric or mutants) as analyte over N-terminally biotinylated romiplostim peptides on streptavidin chips; HBS-EP; two-fold dilution series, highest 100 nM; conditions: both partners purified
T2 construct: signal peptide in the construct; Thrombopoietin receptor (c-Mpl), mouse, residues 1-479, followed by a TEV cleavage site and the Fc domain of hIgG1; Eluted from Protein G resin by TEV cleavage; residues of the TEV site may remain at the C-terminus; also called murine TpoR (monomeric); source: Expi293F cells, transiently transfected, secreted; purified (Protein G Sepharose, TEV elution, Superdex …)
T2 sequence (looked up): T1 chain

Molecule: murine Tpo F162E (site I mutant) (from UniProt P40226 22-356) (ligand)
Kd [2]: > 10000 nM

B1: peptide version of romiplostim (two copies of IEGPTLRQWLAARA connected by a GG linker) (peptide)
peptide: Biotin-IEGPTLRQWLAARAGGIEGPTLRQWLAARA
notes: two copies of the TpoR agonist peptide joined by GG; Not the Fc fusion drug itself; The biotin is stated for the peptides coupled to streptavidin chips; also called romiplostim peptide; dimeric romiplostim peptide; source: synthetic peptide
koff [3]: 0.017 s⁻¹
Kd [4]: 71 nM
binding result [5]: binds

B2: monomeric version of the romiplostim peptide (peptide)
peptide: Biotin-IEGPTLRQWLAARA
notes: TpoR agonist peptide motif of romiplostim; also called monomeric-romiplostim; monomeric version of the peptide; source: synthetic peptide
binding result [5]: binds

Further lines, results first:

ability to induce differentiation of M1(TpoR) cells, fold decrease relative to the WT [1]: 100 fold
Molecule: murine Tpo D29E (site II mutant) (from UniProt P40226 22-356) (ligand)

ability to induce differentiation of M1(TpoR) cells, fold decrease relative to the WT [1]: 100 fold
Molecule: murine Tpo D29Y (site II mutant) (from UniProt P40226 22-356) (ligand)

Reference: PMC10850085 (Nature Communications, 2024)
